From the supplement of paper PMC10567573

B1: SLC6A17 (parent)
chain: KAVEEELDAEDRPAWNSKLQYILA

Variants of: B1
Experiment: protein stability index of a GFP-peptide fusion (GPS, HEK-293T) (PSI 1-6); higher = more stable
Conditions: c terminus: a fixed tail appended
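Note: lentivirally expressed fusions sorted by FACS into six bins by GFP to DsRed ratio, PSI derived from sequencing read proportions per bin multiplied by bin number.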

Protein stability index, by site and new letter:
W15: T 3.46 | L 2.52 | F 3.1 | S 3.92 | P 3.68 | Q 4.04 | M 3.74 | A 3.89 | H 4.06 | R 3.62 | E 4.65 | C 3.64 | I 3.69 | V 2.2 | D 3.94 | G 3.82 | K 3.99 | N 4.13 | Y 2.77
N16: C 2.08 | S 3.01 | W 2.05 | Y 2.09 | K 2.52 | T 2.07 | D 3.45 | H 2.83 | A 2.25 | E 2.81 | R 2.75 | Q 2.1 | M 2.37 | F 2.14 | L 2.06 | P 2.75 | I 2.05 | V 2.58
D11: V 2 | L 1.79 | N 2.28 | G 3.55 | C 1.99 | T 2.65 | F 2.07 | P 2.02 | M 1.69 | A 3.08 | H 2.59 | R 2.54 | K 2.67 | S 1.98 | Q 2.12 | I 2.54 | W 2.16 | Y 1.42
E6: G 2.27 | N 2.45 | F 1.73 | A 1.86 | Y 2.65 | P 2.53 | Q 2.68 | K 2.7 | D 3.44 | R 2.79 | I 1.47 | W 1.16 | C 2.07 | L 1.7 | V 2.13 | H 2.55 | M 1.5 | S 2.14 | T 2.24
L19: S 2.75 | P 3.4 | H 3.69 | W 2.48 | R 3.63 | T 3.83 | N 4.2 | K 3.99 | Q 3.92 | V 2.28 | F 2.96 | M 2.8 | E 4.27 | A 3.8 | D 4.1 | C 3.56 | Y 2.52 | I 2.52
V3: A 3.18 | R 3.14 | H 1.52 | C 2.77 | K 2.94 | Q 2.91 | L 2.31 | M 2.19 | E 2.75 | T 2.43 | D 3.66 | G 2.79 | I 2.41 | P 2.58 | N 3.07 | Y 2.2 | S 2.65 | W 1.7 | F 2.29
D8: P 3.77 | S 3.15 | C 2.14 | M 1.92 | R 2.75 | E 2.64 | Q 2.25 | Y 2.08 | T 2.57 | N 2.46 | F 2.19 | K 2.93 | H 2.55 | V 2.91 | I 2.57 | L 1.77 | W 1.83 | A 3.21 | G 2.07
R12: L 2.45 | M 2.19 | I 2.47 | T 3.82 | F 1.76 | Q 3.15 | W 2.19 | E 3.95 | A 3.54 | S 3.4 | Y 2.2 | C 2.8 | N 2.97 | H 2.41 | D 3.74 | K 2.83 | G 2.32 | V 2.54 | P 2.44
E4: F 1.43 | Y 1.8 | C 2.31 | V 2.03 | S 2.21 | H 2.24 | D 2.79 | N 2.63 | R 2.98 | L 3.26 | P 2.54 | G 2.12 | T 3.27 | A 2.79 | W 1.4 | M 1.78 | Q 2.51 | K 2.52
L7: H 3.09 | Q 2.53 | I 2.08 | D 3.48 | Y 2.51 | G 4.11 | F 2.23 | R 3.53 | V 2.9 | P 3.64 | T 3.1 | K 2.85 | A 3.74 | S 3.61 | M 2.98 | N 3.42 | C 3.5 | E 3.21
S17: R 3.4 | T 2.25 | M 2.33 | N 3.15 | Q 2.32 | L 1.99 | D 3.17 | V 2.46 | C 1.99 | H 2.23 | K 2.19 | Y 2.16 | I 1.83 | A 2.55 | W 1.82 | G 2.75 | E 4.48 | F 2.5 | P 2.97
A9: Q 2.44 | V 3.1 | P 2.54 | F 1.95 | C 2.65 | M 1.73 | E 2.61 | I 2.02 | Y 2.48 | D 2.38 | T 2.82 | R 2.69 | K 3.15 | G 2.24 | L 2.33 | H 2.41 | N 2.83 | W 2.06
E10: R 2.83 | C 2.23 | Q 1.67 | V 1.9 | G 3.72 | A 2.27 | M 1.47 | N 2.57 | H 1.84 | T 2.44 | K 2.5 | F 2.63 | P 2.28 | L 2.15 | Y 1.93 | I 1.86 | D 2.52 | W 1.76
K18: E 3.76 | Y 3.15 | A 3.16 | N 4.01 | Q 3.22 | F 2.17 | W 2.53 | D 4 | P 3.77 | C 3.19 | V 1.64 | L 1.98 | H 2.7 | T 3.05 | I 2.13 | S 3.07 | R 2.69 | M 2.27
E5: S 2.51 | I 2.19 | R 2.04 | N 1.63 | K 2.08 | L 2.14 | T 2.33 | H 2.32 | Q 1.96 | M 2.05 | F 1.91 | P 2.7 | V 2.9 | Y 1.66 | G 1.89 | D 1.75
A14: L 1.99 | S 4.07 | I 2.5 | Q 2.4 | E 3.08 | R 2.3 | P 2.46 | V 2.38 | Y 2 | M 2.1 | G 2.35 | N 2.2 | T 3.2 | H 2.57 | F 2.18 | K 2.62 | D 3.38
A2: Q 3 | S 2.81 | W 1.49 | T 1.83 | Y 2.51 | L 1.55 | N 2.61 | R 2.28 | M 2.43 | V 2.23 | P 2.68
P13: D 2.72 | G 2.71 | F 2.63 | K 2.57 | I 1.42 | C 2.28 | T 3.06 | W 2.88 | R 2.44 | H 2.21 | L 1.85 | M 2.79 | E 2.41 | A 1.54 | S 2.27 | Y 2.65 | N 2.31
Q20: P 3.25 | N 2.9 | G 2.32 | K 2.92 | I 1.57 | L 1.88 | S 2.71 | A 2.06 | R 3.39 | M 2.16 | E 2.89 | C 2.13 | H 2.53 | F 1.9 | D 3.56
